This passage reports amyloid nucleation score results from the supplement of paper PMC12042874.

± gives the uncertainty stated by the source.

The data set can be described thus: amyloid nucleation score (Sup35N fusion, yeast selection) (log enrichment); library NNK3; higher = more nucleation; inactive = no reads after selection. A digest of the protocol:
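DiMSum was used to calculate nucleation scores as log enrichment of output over input reads, centred on the mode score of non-aggregating sequences. Sequences with fewer than 100 input reads were not scored. Input and output came from Illumina sequencing of plasmid inserts in psi-negative yeast expressing peptides of 20 random codons fused to Sup35N, induced 24 hours with 100 μM copper sulfate and then grown 7 days at 30°C on medium lacking adenine and uracil.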
For the substance NIGWV, the amyloid nucleation score is -0.568 ± 1.3. On to DISHKLNTTIVMYFREALRG, for which the amyloid nucleation score entry is “inactive”. Take DFYEIRTSGCDLYMFRGVVA: the amyloid nucleation score result is “inactive”. With IFNMSQYNKLECTLTLY, the amyloid nucleation score entry was “inactive”. To LCCSCWLLIDCQWKDGYLEG belongs 1.91 ± 0.079. In the case of DFTCDPSTLNSRRLSEDLIR, the amyloid nucleation score entry was “inactive”. With PHNLNGPS, the amyloid nucleation score is -0.68 ± 1.9.

Take KSVVGFFVSARYCCTLGTGG: the amyloid nucleation score entry was “inactive”.

As for CVNLYVELKFNHFDFVS, the amyloid nucleation score was 2.04 ± 0.09. To WQVVGYKNLDLCVNLATTDW belongs “inactive”; to VIVSREKSITRSNVIEWWNL, 1.82 ± 0.11. Turning to NGWNVMYLFMCRVNSARSIL, the amyloid nucleation score came to 1.77 ± 0.081. Turning to ASSSNGIVTFNNPR, the amyloid nucleation score result was “inactive”. To YWLIRDLWRGRGS belongs “inactive”; to FWHILLEVRLAVWSQMRDMG, “inactive”; to HIVMVLRSLAYVSSSTHGRR, “inactive”. To DILFDGESLFPYTENSWETR belongs “inactive”; to WVIIIYRYLFRNISAKQSRL, “inactive”. Consider RPWHPLLTSDVVNCWLKIRV, for which the amyloid nucleation score entry is “inactive”. To IMCANSEVVKCYCNRTKLEL belongs 1.08 ± 0.14; to GCLYVW, “inactive”.

Take PYKEFPNNVRPTWNQRYNVK: the amyloid nucleation score result was “inactive”. To CSNRFSNHFMYYVSMLGDGL belongs “inactive”; to SDRRLK, “inactive”. FAICMFRGYLLYFLGLEDEA: the amyloid nucleation score entry is “inactive”.

As to SLVAYLIEGIFNLWEALMDR, the amyloid nucleation score entry is “inactive”. To NSGCQMFL belongs “inactive”. With SKFSCIRSYYG, the amyloid nucleation score entry is “inactive”. With ISFRYHIYRSNCSQMNGRLT, the amyloid nucleation score entry was “inactive”. To GDERGLLMYVPG belongs “inactive”; to VCQPNRSQIQGIFLLRNYSV, “inactive”; to WNMVYFLLQFSIDASLGT, “inactive”. On to VEDCSFAVVKILWYRPFMIW, for which the amyloid nucleation score result was “inactive”. To VCTFTETHGTYLVFALYQPD belongs 0.367 ± 0.54.

Turning to TPGSYLGYCIPRFIGLQYDP, the amyloid nucleation score entry is “inactive”. On to DLMTMSYRLMIIFLVDTWPR, for which the amyloid nucleation score entry is “inactive”. Consider NVFQVALRNSLSMLGSGMRM, for which the amyloid nucleation score result is “inactive”. To IGIDMMMESKLYSCCNLDMY belongs 1.38 ± 0.078. Take LLDSVDMLGFVMWVFGEVTN: the amyloid nucleation score entry is “inactive”.

As to NGTNPSYNKNCFSVFVESFN, the amyloid nucleation score result is “inactive”. To SCLWGKRLMFWCE belongs -0.528 ± 0.77.

On to KDWQTIYQLRSVTFFDLLVV, for which the amyloid nucleation score result is “inactive”. To SIFPRTCTKFFLGVTGFCFN belongs -0.322 ± 0.8; to SGSGWKICRNSHAGAVFYSR, “inactive”. In the case of WVHFYDTMGDM, the amyloid nucleation score entry was “inactive”.

Regarding AGLSQNRSRIRSY, the amyloid nucleation score is -0.2 ± 0.81. To SVQFFPDCCQGELTTNTVRS belongs “inactive”; to GWKANWELCRVYVQWSGLNV, 0.422 ± 0.38.

ASENLAEVLIVT: the amyloid nucleation score result was “inactive”. QGSYTAESTVHHWGFKMNNY: the amyloid nucleation score turned out to be 0.754 ± 0.22. To RPVKCSLYMTGQLQRLDGVN belongs 0.915 ± 0.14; to SRKVRGYLLMTNFVCLSNYV, “inactive”. To MMTCF belongs “inactive”. As for NCGNAPFGFVRP, the amyloid nucleation score entry was “inactive”. To VRQHCQMLMILFLYPLACGS belongs “inactive”; to KGTYGFAINHHYIA, “inactive”. With YKFLLFFFYSISAFGNDSCD, the amyloid nucleation score entry was “inactive”. To SIGCIHARCAYEEFDMVVIC belongs “inactive”; to SLRVLWCIRLKCSCLCWISG, “inactive”; to FTFLMDRY, -0.083 ± 0.34.

On to AVQHIVEFILICQMFTYTHH, for which the amyloid nucleation score entry is “inactive”. On to KIFTWIRCNLSIFYSYGFKS, for which the amyloid nucleation score result was “inactive”.

On to MEFHYWTGVCQVSK, for which the amyloid nucleation score result was “inactive”.

With YRWYQINSGSYLYLASRWCW, the amyloid nucleation score entry was “inactive”. On to IKTRAKLLYFQLVVLTNFLP, for which the amyloid nucleation score result is “inactive”. For IGLSLE, the amyloid nucleation score entry was “inactive”. To SHECHSFLHVLFNVACSWGG belongs “inactive”. As for SQDGYDLHRSFRLLEVGSEL, the amyloid nucleation score result was “inactive”.

Regarding FGRFVMERLTS, the amyloid nucleation score entry was “inactive”. To DMKNWPKDYQ belongs “inactive”.

AGWNMLVMTLCSTLFSQY: the amyloid nucleation score entry is “inactive”. In the case of LFNYVEEIRAVRRIRLGYIK, the amyloid nucleation score result was “inactive”. As for SYFTMTDSSFSVAFANLLVY, the amyloid nucleation score was 0.289 ± 0.78. To DKKGK belongs “inactive”; to HTGNLYHLSWCV, “inactive”; to VCRWSGGGEIGIICGLVSLV, “inactive”.

In turn, LIILWRQ gave an amyloid nucleation score of 1.27 ± 0.079. Consider HIWVCLEVGVGKSILVLLLF, for which the amyloid nucleation score entry is “inactive”.

Consider KLPNYLYRLSLFPVTLVSTM, for which the amyloid nucleation score entry was “inactive”. To NMLMMWCFLVSYNEKMRKTV belongs “inactive”; to FQKGLRQDYQVFLFDSNRFW, “inactive”.

With SITTEVFDSQVNKLRELDGW, the amyloid nucleation score result is “inactive”.

As to YYYLR, the amyloid nucleation score result is “inactive”. FNFVLALI returned an amyloid nucleation score of 1.69 ± 0.084. To GLRNHCPSFLLWASTARGTL belongs -0.976 ± 2.5; to VGPRGGNVSEGPPRVWVNGC, “inactive”. To SNQLNAN belongs “inactive”; to ICCKYGDAKRLVCWSQKSRK, “inactive”; to RFIVS, “inactive”. To AWWYGLSMYIKKCILGSRFE belongs “inactive”.

For the substance IVRPLLNFLCDLCRKVALGK, the amyloid nucleation score result was “inactive”. For NWLVSWFLFFPNSPLFCYHW, the amyloid nucleation score entry was “inactive”. Turning to NKVFMEDQGLKVHWV, the amyloid nucleation score entry was “inactive”. To FSHVV belongs “inactive”. Take LHKLVLMINDRPYLKPS: the amyloid nucleation score result is “inactive”. In turn, INWAKHDWGFNYFSCSICWV displayed an amyloid nucleation score of 1.39 ± 0.079.

With HLVADWQCHSDGFKSWLGNW, the amyloid nucleation score entry was “inactive”.
